Our source for the inhibition of HIV-1 infection in cellulo (GFP+ CEM-GFP cells, flow cytometry); concentration values is patent US20160152676A1.

The experiment has as its target gp41 of HIV-1 IIIB virus (HIV-1 IIIB) (UniProt P04578). In words: cell-based or functional assay.

In turn, “C34-ELMO (from UniProt Q92556 553-675) (designed binder)” yielded an inhibition of HIV-1 infection in cellulo (GFP+ CEM-GFP cells, flow cytometry); concentration at which some inhibition is seen of 250 nM.
